How the values were obtained:
[1] = target: T1, orexin receptor 1 (OX1R) (human (endogenous in HepG2)) (UniProt O43613)
T1 sequence: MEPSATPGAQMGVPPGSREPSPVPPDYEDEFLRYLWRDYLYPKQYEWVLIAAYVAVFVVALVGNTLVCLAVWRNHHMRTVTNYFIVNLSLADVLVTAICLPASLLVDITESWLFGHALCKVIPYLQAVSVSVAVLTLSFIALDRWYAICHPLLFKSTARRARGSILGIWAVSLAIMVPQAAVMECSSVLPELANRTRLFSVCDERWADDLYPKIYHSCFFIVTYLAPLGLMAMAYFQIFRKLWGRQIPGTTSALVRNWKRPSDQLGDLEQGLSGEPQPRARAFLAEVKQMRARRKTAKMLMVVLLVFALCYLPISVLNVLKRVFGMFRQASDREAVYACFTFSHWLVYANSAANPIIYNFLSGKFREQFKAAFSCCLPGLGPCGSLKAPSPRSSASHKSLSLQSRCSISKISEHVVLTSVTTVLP

[2] = target: T1, orexin receptor 1 (OX1R) (human (endogenous in HepG2)); remark: listed apart in the source
[3] = target: T1, orexin receptor 1 (OX1R) (human (endogenous in HepG2)); remark: listed apart in the source

A GLUT1 protein expression (western blot) in HepG2 cells, orexin A 10^-9 to 10^-7 M for 2 h, fold of untreated cells; blocked by the OX1R inhibitor SB334867 (10^-6 M) [1] of 2.43 fold, a glucose uptake (2-deoxy-D-[3H]glucose) in HepG2 cells, orexin A 10^-9 to 10^-7 M, fold of control; blocked by the OX1R inhibitor SB334867 (10^-6 M) [1] of 1.71 fold and an LDHA mRNA (real-time PCR) in HepG2 cells, 10^-7 M orexin A for 2 h, fold against control; dampened by the OX1R inhibitor SB334867 (10^-6 M) [2] of 0.5 fold were found for QPLPDCCRQKTCSCRLYELLHGAGNHAAGILTL [Orexin A] in this work. It also gave a PDK1 mRNA (real-time PCR) in HepG2 cells, 10^-7 M orexin A for 2 h, fold against control; dampened by the OX1R inhibitor SB334867 (10^-6 M) [2] of 0.53 fold and a cellular ATP content in HepG2 cells, orexin A 10^-9 to 10^-7 M for 2 h, fold of control; abrogated by the OX1R inhibitor SB334867 (10^-6 M) [3] of 3.03 fold.

Reference: article PMC5590901
